Measured values as given in PMC8575775, “Structural basis of the interaction between SETD2 methyltransferase and hnRNP L paralogs for governing co-transcriptional splicing” (Nature Communications, 2021).
Substitutions are numbered along the chain they refer to. Values joined by “and” are separate entries in the source; they are usually repeats but may differ in a detail not shown here. Equal entries are not always repeated. Ends that are not written are not given here.

Tests used:
PTB RRM2 (PTB1) = molecular target: T1, PTB RRM2 (PTB1) (Homo sapiens, UniProt P26599); experiment: ITC with PTB RRM2; type: binding; details: ITC 20 °C; N.D. = No detectable interaction under the experiment conditions
T1 construct: made in house; host or cells: Escherichia coli BL21 (DE3)

hnRNP L Y257A = molecular target: T2, hnRNP L Y257A (Homo sapiens, UniProt P14866, Y257A); experiment: ITC with hnRNP L RRM2 Y257A mutant; type: binding; details: ITC 20 °C; N.D. = No detectable interaction under the experiment conditions
T2 construct: made in house; host or cells: Escherichia coli BL21 (DE3)
T2 sequence (P14866 189-286 Y257A): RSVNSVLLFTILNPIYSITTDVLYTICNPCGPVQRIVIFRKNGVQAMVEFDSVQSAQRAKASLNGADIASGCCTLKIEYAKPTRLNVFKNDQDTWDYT
Description: (§1) The hnRNP L_RRM2 fragment (residues189-286) was amplified from the human brain cDNA library and cloned into a modified pET28a (Novagen) vector without a thrombin protease cleavage site (termed p28a). All the mutants were generated using a MutantBEST kit (Takara) and verified via DNA sequencing. All the proteins were expressed in Escherichia coli BL21 (DE3) cells. The cells were cultured at 37 °C in LB medium, until the OD600 reached about 0.8. Then the proteins were induced with 0.2 mM isopropyl β-D-1-thiogalactopyranoside (IPTG). After induction at 16 °C for 24 h, the cells were harvested and lysed by sonication in buffer A (20 mM Tris-HCl, pH 7.8, 1 M NaCl). Proteins were first purified by Ni-NTA agarose beads and further purified by size-exclusion chromatography on a Hiload 16/60 Superdex 75 column (GE Healthcare) in buffer A. Purified proteins were dialyzed with Buffer B (20 mM Tris-HCl pH 7.8, 150 mM NaCl) and concentrated for subsequent analysis.
(§2) Isothermal titration calorimetry (ITC) assays were performed at 20 °C by using a Microcal PEAQ-ITC instrument (Malvern). We conducted the ITC experiments using SETD2 peptides for titration into hnRNP L and hnRNP LL proteins. […] The integrated heat data were analyzed using a one-site binding model by MicroCal PEAQ 1.0.0.1259-ITC Analysis Software provided by the manufacturer.

hnRNP L RRM2 = molecular target: T3, hnRNP L RRM2 (Homo sapiens, UniProt P14866); experiment: ITC of SETD2 peptides with hnRNP L RRM2; type: binding; details: ITC 20 °C, N.D. = No detectable interaction under the experiment conditions
T3 construct: made in house; host or cells: Escherichia coli BL21 (DE3)
T3 sequence (P14866 189-286): T2 sequence (P14866 189-286 Y257A) with A69Y
Description: as §1, §2

[1] = molecular target: T4, hnRNP L RRM2 (residues 189-286) (human); experiment: ITC; SETD2 peptide (about 600 µM, syringe) titrated into the protein (about 50 µM, sample pool); 20 °C; MicroCal PEAQ-ITC; one-site binding model; three independent titrations; details: both partners purified
T4 construct: heterogeneous nuclear ribonucleoprotein L, human, RRM2 fragment residues 189-286; also called hnRNP L^WT; source: E. coli BL21 (DE3), purified (Ni-NTA, size-exclusion chromatography)
T4 chain: T2 sequence (P14866 189-286 Y257A) with A69Y

hnRNP LL RRM2 [2] = molecular target: T5, hnRNP LL RRM2 (human, UniProt Q8WVV9 166-268); experiment: as above; details: both partners purified
T5 construct: heterogeneous nuclear ribonucleoprotein L-like, human, RRM2 domain; also called hnRNP LL^WT; source: E. coli BL21 (DE3), purified (Ni-NTA, size-exclusion chromatography)
T5 sequence: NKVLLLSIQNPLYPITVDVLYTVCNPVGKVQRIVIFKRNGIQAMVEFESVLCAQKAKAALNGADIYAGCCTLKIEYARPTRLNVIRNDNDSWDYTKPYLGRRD

hnRNP L^L263A RRM2 [3] = molecular target: T6, hnRNP L^L263A RRM2 (human, UniProt P14866 189-286, L263A); experiment: as above; details: both partners purified
T6 construct: heterogeneous nuclear ribonucleoprotein L, human, RRM2 fragment residues 189-286 as Dm1, with L263A; source: E. coli BL21 (DE3), purified (Ni-NTA, size-exclusion chromatography)
T6 sequence (looked up): T2 sequence (P14866 189-286 Y257A) with A69Y, L75A

hnRNP L^L263A RRM2 [4] = molecular target: T6, hnRNP L^L263A RRM2; experiment: as above; details: both partners purified; remark: listed apart in the source
hnRNP LL^V188I RRM2 = molecular target: T7, hnRNP LL^V188I RRM2 (human, UniProt Q8WVV9 166-268, V188I); experiment: as above; details: both partners purified
T7 construct: heterogeneous nuclear ribonucleoprotein L-like, human, RRM2 domain as Dm4, with V188I; source: E. coli BL21 (DE3), purified (Ni-NTA, size-exclusion chromatography)
T7 sequence: T5 sequence with V23I

hnRNP L^V210A RRM2 = molecular target: T8, hnRNP L^V210A RRM2 (human, UniProt P14866 189-286, V210A); experiment: as above; details: both partners purified
T8 construct: heterogeneous nuclear ribonucleoprotein L, human, RRM2 fragment residues 189-286 as Dm1, with V210A; source: E. coli BL21 (DE3), purified (Ni-NTA, size-exclusion chromatography)
T8 sequence (looked up): T2 sequence (P14866 189-286 Y257A) with V22A, A69Y

hnRNP L^I214A RRM2 = molecular target: T9, hnRNP L^I214A RRM2 (human, UniProt P14866 189-286, I214A); experiment: as above; details: both partners purified
T9 construct: heterogeneous nuclear ribonucleoprotein L, human, RRM2 fragment residues 189-286 as Dm1, with I214A; source: E. coli BL21 (DE3), purified (Ni-NTA, size-exclusion chromatography)
T9 sequence (looked up): T2 sequence (P14866 189-286 Y257A) with I26A, A69Y

hnRNP L^I256A RRM2 = molecular target: T10, hnRNP L^I256A RRM2 (human, UniProt P14866 189-286, I256A); experiment: as above; details: both partners purified
T10 construct: heterogeneous nuclear ribonucleoprotein L, human, RRM2 fragment residues 189-286 as Dm1, with I256A; source: E. coli BL21 (DE3), purified (Ni-NTA, size-exclusion chromatography)
T10 sequence (looked up): T2 sequence (P14866 189-286 Y257A) with I68A, A69Y

hnRNP LL RRM2 [5] = molecular target: T11, hnRNP LL RRM2 (human, UniProt Q8WVV9 166-268); experiment: ITC; SETD2 peptides (about 600 µM, syringe) titrated into hnRNP L / hnRNP LL proteins (about 50 µM, cell); 20 °C; Microcal PEAQ-ITC; one-site binding model; mean of three independent experiments; details: both partners purified
T11 construct: hnRNP LL, human, RRM2 domain; The methods describe only the cloning of hnRNP L RRM2; all proteins were expressed in E. coli; source: E. coli BL21 (DE3), purified (Ni-NTA, size-exclusion chromatography)
T11 sequence: T5 sequence

[6] = molecular target: T12, hnRNP L RRM2 (residues 189-286) (human, UniProt P14866 189-286); experiment: as above; details: both partners purified
T12 construct: hnRNP L, human, RRM2 fragment, residues 189-286, amplified from a human brain cDNA library; Cloned into a modified pET28a vector without a thrombin cleavage site (p28a); also called hnRNP L RRM2 WT; source: E. coli BL21 (DE3), purified (Ni-NTA, size-exclusion chromatography)
T12 sequence (looked up): T2 sequence (P14866 189-286 Y257A) with A69Y

hnRNP L RRM2 I256A = molecular target: T13, hnRNP L RRM2 I256A (human, UniProt P14866 189-286, I256A); experiment: as above; details: both partners purified
T13 construct: hnRNP L, human, RRM2 fragment 189-286 with I256A; source: E. coli BL21 (DE3), purified (Ni-NTA, size-exclusion chromatography)
T13 sequence (looked up): T2 sequence (P14866 189-286 Y257A) with I68A, A69Y

T1 sequence (P26599 184-260 limits assumed): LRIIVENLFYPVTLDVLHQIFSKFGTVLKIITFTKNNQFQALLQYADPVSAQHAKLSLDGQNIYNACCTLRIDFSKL

YPPGYPMQAYVDPSNPNAGKVLLPTP [SETD2^2167–2192]
KD / interaction detected by ITC, in words (PTB RRM2 (PTB1)): no detectable affinity | KD / interaction detected by ITC, in words (hnRNP L Y257A): completely abolished

SETD2^2113–2140: adjacent SETD2 fragment, residues 2113–2140, used as non-binding control in ITC (RNKLSTEERRKLFEQEVAQREAQKQQQQ)
KD / interaction detected by ITC, in words (hnRNP L RRM2): could not detect any interaction | KD / interaction detected by ITC, in words (hnRNP L RRM2; listed as SETD2^2113-2140): No Binding

B1: SETD2^2180-2192 peptide (peptide)
peptide: SNPNAGKVLLPTP
notes: source: synthetic peptide
Kd [1]: 11.4 µM and 11.8 µM and 11.5 µM | stoichiometry N [1]: 1.01 and 1 and 0.96 | Kd (hnRNP LL RRM2 [2]): 20.2 µM and 19.8 µM and 20.1 µM (2×) | stoichiometry N (hnRNP LL RRM2 [2]): 0.82 and 0.83 and 0.89

B2: SETD2^2167-2192 peptide (peptide, UniProt Q9BYW2 2167-2192, looked up)
peptide: YPPGYPMQAYVDPSNPNAGKVLLPTP
notes: source: synthetic peptide
stoichiometry N (hnRNP L^L263A RRM2 [3]): 0.97 | Kd (hnRNP L^L263A RRM2 [4]): 14.4 µM and 13.6 µM and 13.2 µM and 13.7 µM | stoichiometry N (hnRNP L^L263A RRM2 [4]): 0.85 and 0.98 and 0.93 | Kd (hnRNP LL^V188I RRM2): 6.16 µM and 6.44 µM and 6.3 µM | stoichiometry N (hnRNP LL^V188I RRM2): 1.1 and 0.96 and 1.12 | Kd [1]: 5.83 µM and 5.91 µM | stoichiometry N [1]: 0.93 and 0.92 | Kd (hnRNP L^V210A RRM2): 9.1 µM and 8.9 µM and 9.33 µM and 9.11 µM | stoichiometry N (hnRNP L^V210A RRM2): 0.93 and 0.78 and 1.13 | Kd (hnRNP LL RRM2 [2]): 8.58 µM and 8.04 µM and 8.19 µM | stoichiometry N (hnRNP LL RRM2 [2]): 0.95 and 1.04 | Kd (hnRNP L^I214A RRM2): 15.6 µM and 16.3 µM and 16.2 µM and 16 µM | stoichiometry N (hnRNP L^I214A RRM2): 1.01 and 1.05 and 1.18 | Kd (hnRNP L^I256A RRM2): 34.8 µM and 35.8 µM and 35 µM and 35.2 µM | stoichiometry N (hnRNP L^I256A RRM2): 1.3 and 1.31 and 1.18

B3: SETD2 2167–2192 peptide (peptide, UniProt Q9BYW2 2167-2192, looked up)
peptide: YPPGYPMQAYVDPSNPNAGKVLLPTP
notes: source: synthetic peptide
Kd (hnRNP LL RRM2 [5]): 8.27 µM | Kd [6]: 5.86 µM | stoichiometry N [6]: 0.93 | fold decrease in binding against wild-type hnRNP L RRM2 (hnRNP L RRM2 I256A): 9 fold

B4: SETD2 2180–2192 peptide (peptide)
peptide: SNPNAGKVLLPTP
notes: also called truncated peptide; source: synthetic peptide
Kd [6]: 11.6 µM
